Measured values reported in publication PMC4913355 (Methods in enzymology, 2015).

B1: Skp (natural protein, E. coli, UniProt P0AEU7 21-161, looked up)
chain: ADKIAIVNMGSLFQQVAQKTGVSNTLENEFKGRASELQRMETDLQAKMKKLQSMKAGSDRTKLEKDVMAQRQTFAQKAQAFEQDRARRSNEERGKLVTRIQTAVKSVANSQDIDLVVDANAVAYNSSDVKDITADVLKQVK

What was measured:
[1] = molecular target: B1; test: contrast variation small-angle neutron scattering
[2] = molecular target: the molecule itself; test: small-angle neutron scattering

Binder | stoichiometry N [1] | stoichiometry N [2]
unfolded OmpW, deuterated (natural protein, UniProt P0A915 22-212, looked up, partially deuterated (estimated 50 % ± 5 %)) HEAGEFFMRAGSATVRPTEGAGGTLGSLGGFSVTNNTQLGLTFTYMATDNIGVELLAATPFRHKIGTRATGDIATVHHLPPTLMAQWYFGDASSKFRPYVGAGINYTTFFDNGFNDHGKEAGLSDLSLKDSWGAAGQVGVDYLINRDWLVNMSVWYMDIDTTANYKLGGAQQHDSVRLDPWVFMFSAGYRF | 3 Skp monomers per uOMP | –
unfolded OmpA, deuterated (natural protein, E. coli, UniProt P0A910 22-346, looked up, partially deuterated (estimated 50 % ± 5 %)) APKDNTWYTGAKLGWSQYHDTGFINNNGPTHENQLGAGAFGGYQVNPYVGFEMGYDWLGRMPYKGSVENGAYKAQGVQLTAKLGYPITDDLDIYTRLGGMVWRADTKSNVYGKNHDTGVSPVFAGGVEYAITPEIATRLEYQWTNNIGDAHTIGTRPDNGMLSLGVSYRFGQGEAAPVVAPAPAPAPEVQTKHFTLKSDVLFNFNKATLKPEGQAALDQLYSQLSNLDPKDGSVVVLGYTDRIGSDAYNQGLSERRAQSVVDYLISKGIPADKISARGMGESNPVTGNTCDNVKQRAALIDCLAPDRRVEIEVKGIKDVVTQPQA | 3 Skp monomers per uOMP | –
B1 | – | 3
